Experimental findings from patent US20060193821 are described below.

pIC50, pKd: −log10 of the molar value. Some results are limits rather than exact numbers.

Series [1] addresses T1, IL-23 (mouse, p19/p40 heterodimer) (Mus musculus) (UniProt Q9EQ14+P43432).
T1 sequence 1: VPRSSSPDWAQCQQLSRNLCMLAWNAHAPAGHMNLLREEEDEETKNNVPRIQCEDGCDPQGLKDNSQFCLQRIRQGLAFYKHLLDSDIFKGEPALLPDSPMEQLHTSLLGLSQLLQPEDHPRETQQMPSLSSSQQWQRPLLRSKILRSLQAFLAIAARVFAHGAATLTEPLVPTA
T1 sequence 2: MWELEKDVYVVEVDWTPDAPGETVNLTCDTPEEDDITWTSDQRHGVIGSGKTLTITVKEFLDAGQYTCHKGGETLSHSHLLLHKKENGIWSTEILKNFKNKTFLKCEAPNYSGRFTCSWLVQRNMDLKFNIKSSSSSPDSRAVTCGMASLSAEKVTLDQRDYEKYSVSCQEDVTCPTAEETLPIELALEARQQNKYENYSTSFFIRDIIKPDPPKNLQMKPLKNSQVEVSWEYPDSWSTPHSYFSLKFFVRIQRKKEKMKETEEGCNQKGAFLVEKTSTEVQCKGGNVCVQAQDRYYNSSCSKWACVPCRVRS
Put plainly: filter. Particulars: 2'-F all C and U (rRfY); 1X PBS, 0.1 mg/mL BSA, 30 min RT.

In series [2] the target is T2, IL-12 (mouse, p35/p40 heterodimer) (Mus musculus) (UniProt P43431+P43432).
T2 sequence 1: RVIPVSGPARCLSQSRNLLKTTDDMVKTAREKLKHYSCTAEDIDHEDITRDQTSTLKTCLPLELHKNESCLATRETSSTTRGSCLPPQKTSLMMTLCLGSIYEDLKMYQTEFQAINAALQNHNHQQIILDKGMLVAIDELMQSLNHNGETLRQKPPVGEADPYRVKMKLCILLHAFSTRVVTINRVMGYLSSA
T2 sequence 2: T1 sequence 2
Put plainly: filter. Conditions: 2'-F all C and U (rRfY); 1X PBS, 0.1 mg/mL BSA, 30 min RT.

The target of series [3] is T3, IL-23 (human, p19/p40 heterodimer) (Homo sapiens) (UniProt Q9NPF7+P29460). Put plainly: filter. Conditions: 2'-F C,U; SHMCK, tRNA.
T3 sequence (Q9NPF7 20-189, chain 1 of 2): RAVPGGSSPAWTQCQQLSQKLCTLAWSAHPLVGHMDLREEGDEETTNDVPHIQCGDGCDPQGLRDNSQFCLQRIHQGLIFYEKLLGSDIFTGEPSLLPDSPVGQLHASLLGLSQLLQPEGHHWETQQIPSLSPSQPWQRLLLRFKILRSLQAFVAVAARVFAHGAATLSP
T3 sequence (P29460 23-328, chain 2 of 2): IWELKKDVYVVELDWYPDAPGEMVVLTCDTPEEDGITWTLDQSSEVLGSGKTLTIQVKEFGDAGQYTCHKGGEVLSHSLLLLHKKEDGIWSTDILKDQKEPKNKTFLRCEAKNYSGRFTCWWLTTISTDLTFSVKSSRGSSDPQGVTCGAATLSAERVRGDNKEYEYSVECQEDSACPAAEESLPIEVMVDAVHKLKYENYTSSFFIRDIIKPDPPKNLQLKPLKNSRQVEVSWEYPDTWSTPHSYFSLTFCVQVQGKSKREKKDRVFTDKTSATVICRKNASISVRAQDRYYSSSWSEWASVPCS
The target in series [4] is T3, IL-23 (human, p19/p40 heterodimer) (Homo sapiens). Kind of series: cell_activity. Particulars: 2'-F C and U, 2'-OH A and G; TransAM STAT3, PHA blasts.

As usually defined, the pKd is the negative decadic logarithm of the Kd, by convention in mol/L. Higher therefore signals a low Kd. Consider “GGAGCGCACUCNGCCACUUCGGAAUAUCGUUGUCUUCUGGGUGAGCAUGCGUUGAGGUUUCNACCUCUCUGCUAGC [AMX369.B2]”, for which the pKd was 7.31 in series [1] and 6.60 in series [2].
For the sequence “GGAGCGCACUCAGCCACUGGGGAACAUCUCAUGUCUCUGACCGCUCUUGCAGUAGAAUUUNGACCUCUCUGCUAGC [AMX369.G3]”, the pKd in series [1] is 6.97; in series [2], 6.58.
For “GGAGCGCACUCAGCCACGGUUUACUUCCGUGGCAAUAUUGACCUCNCUCUAGACAGGUUUCGACCUCUCUGCUAGC [AMX369.F1]” the same measures were 7.20 and 6.78.
In general, pIC50 refers to the negative decadic logarithm of the IC50, by convention in mol/L. “AGGGAAAAGGAAUCAUACACAAGAUGUAUCAUCCGGUCGUACAAAAGCGCCACGGAACCAUUCGCUCCGCCAGANACCAACCGAGAA [ARX33-plate1-H01]”: the pKd in series [3] was 7.11. In addition, in series [4], the pIC50 was less than 5.30.
